Reference: PMC8721586, “Enzymatic Switching Between Archaeal DNA Polymerases Facilitates Abasic Site Bypass” (Frontiers in Microbiology, 2021)

Substrate: Nc1nc2c(ncn2[C@H]2C[C@H](O)[C@@H](COP(=O)(O)OP(=O)(O)OP(=O)(O)O)O2)c(=O)[nH]1
Assay: steady-state single-nucleotide incorporation, FAM-primer gel assay, Michaelis-Menten fit
Type: biochemical, Saccharolobus islandicus
Conditions: pH 8.0 Tris-HCl, 40 mM KCl, 10 mM MgCl2, 11 nM enzyme, 100 nM primer-template (undamaged S0; also AP-site substrates D1-D8, L1-L8), apparent Km

B1: Dpo2 (SisDpo2) (Saccharolobus islandicus REY15A) (protein)
chain: MREMEEYVLDAYPVKGGVKLFLSNFKEKSIRTTFPVYAITDNPDVVLQHPEVKYYEEEKWKTLNGKEAKVYRFEVESFDAYYYMRKRLNVVNETPTVLSQTLYRLGIKPFRRLNSSDDEFPKVTIAKVVPLDWYGESLKGKVFEVKINNEVRRFYEKPEVEADITECLGEACNYVKSNVKIRIEKKRSPVSAKGLIEWSLISLTPLHEIAYATIGKVLTTNEAWVAFKRRIIIPKIVPRVEKLRRLENIMMADKGGLILFPQPGCYDNVYQVDFSSMYPSLIVKYNISAETVDACDDIKTELHSICLREKGIIPEALEWLIKRKSELKRIDKERAEAIKWILVASFGYLGYRNSLFGKIEAYEMVTYLARKTLRRTMEIAEEMGLKVLHSIIDSLVVKGDNIDKFIERVEKETGLRLDHKRYNWIIFTTTRNDTPYPTRYIANMNGEIIAKGLIRENMPNIVKSFLKDVLRGLSLTRTCSDVKKVRIRDLYEKYRKRTINGEPIDYVIWIKGVPYVRGIKGFYDARLGYMGRDVNYYINYLRRVYDNVEEVISRC
notes: recombinant, expressed in native host S. islandicus E233S; purified as in Feng et al. 2021
- Km: 118 ± 22.7 µM
- kcat: 0.525 ± 0.125 s⁻¹
